According to publication PMC6211226, “Intracellular Signaling by the comRS System in Streptococcus mutans Genetic Competence” (mSphere, 2018):
{BodipyFLX} = Bodipy FL-X fluorophore label on the DNA probe

Experiments:
ComR = experiment: Fluorescence polarization competition assay with unlabeled DNA probes; format: binding; details: 1.5 µM ComR, 10 µM ComS or XIP, 1 nM labeled PcomX DNA; PcomS vs PcomX
Method: FIG 5 ComS and XIP interact with ComR to bind the comX promoter. A fluorescence polarization assay testing interaction of ComS and XIP peptides with ComR and the PcomX transcriptional activation site was performed. The DNA probe was labeled with a Bodipy FL-X fluorophore. (A) Titration of ComR into a solution containing 10 µM XIP (blue) or full-length ComS (green), labeled DNA probe (1 nM), and 0.05 mg ml^−^1 salmon DNA. The negative control (black) contained no ComS or XIP peptide. (B) Competition assay in which unlabeled promoter sequence DNA was titrated into a solution containing ComR (1.5 µM), fluorescent DNA probe (1 nM), and peptide (either ComS or XIP, 10 µM). Unlabeled PcomX DNA was used with XIP (blue) and ComS (green). An unlabeled PcomS probe was also tested for its ability to compete with the fluorescent PcomX probe in the presence of XIP (red) and ComS (gold). […]
Competing unlabeled probe assays were performed with 1.5 µM ComR in the same buffer containing 1 nM PcomX fluorescent DNA and 10 µM SHP (either ComS or XIP). […] Reaction mixtures were again incubated at 37°C for 20 min before polarization readings were taken. In all FP experiments, reading was performed three times on the same plate to estimate instrument error. […]

[1] = biological target: ComS (full-length, 17 residues), synthetic (Streptococcus mutans); experiment: fluorescence polarisation; ComR titrated into 1 nM Bodipy FL-X-labelled PcomX stem-loop DNA probe with 10 µM XIP or ComS, 0.05 mg/ml salmon DNA, 1 mM EDTA, 37°C 20 min; together with competition by unlabeled DNA at 1.5 µM ComR; read-out is on the DNA probe, k1 and n of the ComR/peptide complex come from the fit of a two-step cooperative model
[2] = biological target: XIP (sigX-inducing peptide), synthetic (Streptococcus mutans); experiment: as above
[3] = biological target: ComR;XIP (Streptococcus mutans UA159;Streptococcus mutans) (UniProt Q8DWI6); experiment: fluorescence polarization; details: Previously described reaction buffer (ref 53; composition not given) + 1 mM EDTA, 0.05 mg/ml salmon DNA, 1 nM probe, 37 C, 20 min; ComR dialyzed into PBS pH …
ComR;ComS [4] = biological target: T1, ComR;ComS (Streptococcus mutans …, UniProt Q8DWI6; 1-304;, |); experiment: competition (fluorescence polarization); 1.5 uM ComR, 10 uM ComS, 1 nM labeled PcomX; affinity appears identical to PcomX; Previously described reaction buffer (ref 53; composition not given) + 1 mM EDTA, 0.05 mg/ml salmon DNA, 1 nM probe, 37 C, 20 min; ComR dialyzed into PBS pH 7.4; details: tags: His6 tag (pET-45b(+), N-terminal) cleaved with EKMax;; chain copies: 2;2; hairpin, 20 bp stem, CCCCC loop
ComR;ComS [5] = biological target: T1, ComR;ComS; experiment: fluorescence polarization; 10 uM ComS; k2 of two-step model (k1 = 3.2 uM, n = 2.5), global fit with competition; not precisely determined, Text S3 gives k2 range 30-200 nM; Previously described reaction buffer (ref 53; composition not given) + 1 mM EDTA, 0.05 mg/ml salmon DNA, 1 nM probe, 37 C, 20 min; ComR dialyzed into PBS pH 7.4; details: tags: His6 tag (pET-45b(+), N-terminal) cleaved with EKMax;; chain copies: 2;2; label: 5' Bodipy FL-X; hairpin, 20 bp stem, CCCCC loop

“PcomX: self-annealing stem-loop DNA, 5′-ATGGGACATTTATGTCCTGTCCCCCACAGGACATAAATGTCCCAT-3′ (5′-Bodipy FL-X in labeled probe) (DNA, 5' {BodipyFLX}, backbone and methylation of C not given here)” was tested, and the “affinity of unlabeled probe for ComR by competition” value (ComR) was “appear to have identical levels of affinity for ComR”.

Work on “ComR (native, histidine tag cleaved) (receptor)” yielded a Kd [1] of 3200 nM, a n (order of multimerization of the ComR/peptide complex, two-step model) [1] of 2.5 and a Kd [2] of 7300 nM. For the same molecule, the n (order of multimerization of the ComR/peptide complex, two-step model) [2] was 2.4.

With “ATGGGACATTTATGTCCTGTCCCCCACAGGACATAAATGTCCCAT [PcomX stem-loop probe]” the Kd [3] was 33 nM.

B1: PcomS stem-loop, unlabeled (structured_DNA)
DNA: ACGGGACATAAATGTCCTGTCCCCCACAGGACATTTATGTCCCGT
B1: binds (ComR;ComS [4]).

B2: PcomX stem-loop probe (structured_DNA)
DNA: ATGGGACATTTATGTCCTGTCCCCCACAGGACATAAATGTCCCAT
Molecule B2 has a Kd (ComR;ComS [5]) of 2.2 nM.
